The values that follow come from patent US20250186614A1, “COMPACT DRUG RESPONSIVE DOMAINS FOR REGULATION OF FUNCTION/ABUNDANCE AND DELIVERY OF POLYPEPTIDE PAYLOADS” (OBSIDIAN THERAPEUTICS, INC., priority 2022, published 2025).

A short description of assay [1]: Example 4: dose response of FKBP constructs 160-255, Ec50, Ec90 and fold change (raw and normalized to mCherry). The format is cell-based. Particulars: for FC (fold change): fold change during initial analysis. As to the method: Additional experiments were performed for constructs FKBP-160-292.
The subject of another assay is Jurkat cells. In words: Tacrolimus dose response of FKBP13-AcGFP-mCherry constructs stably transduced into Jurkat cells, GFP MFI by flow cytometry. In kind it is cell-based. On the set-up: Basal: unit not given here. As to conditions: for Fold Change: Jurkat cells, Table 13. A digest of the protocol: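 GFP geometric MFI was read by flow cytometry in mCherry+ cells and curve-fitted against tacrolimus dose. Cells were Jurkat E6-1, lentivirus-transduced with FKBP13-AcGFP-mCherry fusion constructs until 10-25% mCherry-positive on day 5 post-transduction.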
In general terms: A flow cytometer gives signals particle by particle.

The mark [2] stands for this setting: FKBP constructs 160-255, not normalized, read-out: EC90.
[3] abbreviates: normalized to mCherry, read-out: EC90 (Norm).

Like-named read-outs stand apart in the source and are kept apart here.

B1: FKBP-203: FKBP13 DRD-AcGFP construct of Table 10 (protein)
chain: HCPIKSRKGDVLHAHYTGKLEDGTEFDSSLPRNQLFVFSLGTGERIKGWDQGLLGMCEGEKRKLVIPSELGYGERGWPPKIPGGATLVFEVELLKIER
modifications: Description of sequence: Construct Name: FKBP-203; Mutation(s): Q72R Q84E A117W V85R DRD M54A P75L
As a reminder, the EC90 is the concentration at which the effect reaches the 90% level. As to B1, the EC90 in assay [1] (setting [2]) is 657 nM; in assay [1] (setting [3]) it was 747 nM. Moreover, in assay [1], the “FC (fold change)” value was 66.0.

B2: FKBP-288: FKBP13 DRD-AcGFP construct of Table 10 (protein)
chain: HCPIKSRKGDVLHMHYTGKLEDGTEFDSSLPRNQPFVFSLGTGERIKGWDQGLLGMCEGEKRKLVIPSELGYGERGWPPIIPGGATLVFEVELLKIER
modifications: Description of sequence: Construct Name: FKBP-288; Mutation(s): Q72R Q84E A117W V85R K120I
Take B2: in the assay with Jurkat cells (tacrolimus, FIG. 38), the FC came out at 30.10 and the Peak amounted to 3718. For the same molecule, in the assay on Jurkat cells (tacrolimus), the “Fold Change” value came out at 30.1.

B3: FKBP-291: FKBP13 DRD-AcGFP construct of Table 10 (protein)
chain: HCPIKSRKGDVLHMHYTGKLEDGTEFDSSLPRNQPFVFSLGTGERIKGWDQGLLGMCEGEKRKLVIPSELGYGERGWPPKIPGGATLVFNVELLKIER
modifications: Description of sequence: Construct Name: FKBP-291; Mutation(s): Q72R Q84E A117W V85R E130N
Regarding B3, in the assay on Jurkat cells (tacrolimus, FIG. 38), the FC was 53.37 and the Peak amounted to 3859. For the same molecule, in the assay with Jurkat cells (tacrolimus), the “Fold Change” value is 53.37.

B4: FKBP-256: FKBP13 DRD-AcGFP construct of Table 10 (protein)
chain: HCPIKSRKGDVLHMHYTGKLEDGTEFDSSLPRNQPFVFSLGTGERIKGWDQGLLGMCEGEKRKLVIPSELGYGERGWPPKIPGGATLVFEVELLKIMR
modifications: Description of sequence: Construct Name: FKBP-256; Mutation(s): Q72R Q84E A117W V85R DRD E137M
As to B4, the Basal is reported as 111 in the assay with Jurkat cells (FIG. 41); 110 in the assay with Jurkat cells (FIG. 43, BR1 (Biorep 1)); 125 in the assay with Jurkat cells (FIG. 43, BR2 (Biorep 2)). In addition, the FC amounted to 65 with Jurkat cells (FIG. 41); 71.46 in the assay on Jurkat cells (FIG. 43, BR1 (Biorep 1)); 59.04 with Jurkat cells (FIG. 43, BR2 (Biorep 2)); 78 in the assay on Jurkat cells (tacrolimus, FIGS. 29 and 30). The same molecule gave a Peak in the assay on Jurkat cells (FIG. 41) of 6851. Moreover, the “At 10 uM” value in the assay with Jurkat cells (FIG. 43, BR1 (Biorep 1)) came out at 7861; with Jurkat cells (FIG. 43, BR2 (Biorep 2)), 7380. The “Fold Change” value with Jurkat cells (tacrolimus) is 78.

B5: FKBP-206 (protein)
chain: HCPIKSRKGDVLHAHYTGKLEDGTEFDSSLPRNQPFVFSLGTGERIKGWDQGLLGMCEGEKRKLVIPSELGYGERGWPPKIPGGATLVFEVELLYIER
modifications: Description of sequence: Construct Name: FKBP-206; Mutation(s): Q72R Q84E A117W V85R DRD M54A K135Y
With B5, the EC90 in assay [1] (setting [2]) was found to be 573 nM; in assay [1] (setting [3]) it was 550 nM. Also, in assay [1], the “FC (fold change)” value is listed as 50.1.

B6: FKBP-257: FKBP13 DRD-AcGFP construct of Table 10 (protein)
chain: HCPIKSRKGDVLHMHYTGKLEDGTEFDSSLPRNQPFVFSLGTGERIKGWDQGLLGMCEGEKRKLVIPSELGYGERGWPPKIPGGATLVFEVELLKIFR
modifications: Description of sequence: Construct Name: FKBP-257; Mutation(s): Q72R Q84E A117W V85R DRD E137F
In the assay on Jurkat cells (FIG. 41), B6 registered a Basal of 98, an FC of 59 and a Peak of 5501. Also, in the assay on Jurkat cells (FIG. 43, BR1 (Biorep 1)), the Basal was 107, the FC was 59.79 and the “At 10 uM” value is listed as 6397. In addition, in the assay on Jurkat cells (FIG. 43, BR2 (Biorep 2)), the Basal was determined as 118, the FC turned out to be 50.39 and the “At 10 uM” value worked out at 5946. In addition, the FC in the assay on Jurkat cells (tacrolimus, FIGS. 29 and 30) was 65. For the same molecule, in the assay on Jurkat cells (tacrolimus), the “Fold Change” value came out at 65.

B7: FKBP-204 (protein)
chain: HCPIKSRKGDVLHAHYTGKLEDGTEFDSSLPRNQPFVFSLGTGERIKGWAQGLLGMCEGEKRKLVIPSELGYGERGWPPKIPGGATLVFEVELLKIER
modifications: Description of sequence: Construct Name: FKBP-204; Mutation(s): Q72R Q84E A117W V85R DRD M54A D90A
Turning to B7, the EC90 in assay [1] (setting [2]) was found to be 15200 nM; in assay [1] (setting [3]), 15500 nM. For the same molecule, the “FC (fold change)” value in assay [1] turned out to be 37.9.

B8: FKBP-289: FKBP13 DRD-AcGFP construct of Table 10 (protein)
chain: HCPIKSRKGDVLHMHYTGKLEDGTEFDSSLPRNQPFVFSLGTGERIKGWDQGLLGMCEGEKRKLVIPSELGYGERGWPPIIPGGATLVFEVELLYIER
modifications: Description of sequence: Construct Name: FKBP-289; Mutation(s): Q72R Q84E A117W V85R K120I K135Y
In the assay with Jurkat cells (tacrolimus, FIG. 38), B8 gave an FC of 73.38 and a Peak of 2659. In addition, the “Fold Change” value in the assay with Jurkat cells (tacrolimus) was 73.38.

B9: FKBP-259: FKBP13 DRD-AcGFP construct of Table 10 (protein)
chain: HCPIKSRKGDVLHMHYTGKLEDGTEFDSSLPRNQPFVFSLGTGERIKGWDQGLLGMCEGEKRKLVIPSELGYGERGWPPKIPGGATLVFKVELLKIER
modifications: Description of sequence: Construct Name: FKBP-259; Mutation(s): Q72R Q84E A117W V85R DRD E130K
For B9, the Basal in the assay with Jurkat cells (FIG. 40) was 72.3; in the assay with Jurkat cells (FIG. 47, BR1 (Biorep 1)), 70.7; in the assay with Jurkat cells (FIG. 47, BR2 (Biorep 2)), 77.3. Besides, the FC in the assay with Jurkat cells (FIG. 40) came to 90; in the assay with Jurkat cells (FIG. 47, BR1 (Biorep 1)) it was 95.97; with Jurkat cells (FIG. 47, BR2 (Biorep 2)), 84.76; in the assay on Jurkat cells (tacrolimus, FIGS. 29 and 30), 103. In addition, in the assay with Jurkat cells (FIG. 40), the Peak amounted to 6232. Besides, the “At 10 uM” value in the assay with Jurkat cells (FIG. 47, BR1 (Biorep 1)) was 6785; in the assay on Jurkat cells (FIG. 47, BR2 (Biorep 2)) it was 6552. In addition, the “Fold Change” value in the assay with Jurkat cells (tacrolimus) is 103.

B10: FKBP-205 (protein)
chain: HCPIKSRKGDVLHAHYTGKLEDGTEFDSSLPRNQPFVFSLGTGERIKGWDQGLLGMCEGEKRKVVIPSELGYGERGWPPKIPGGATLVFEVELLKIER
modifications: Description of sequence: Construct Name: FKBP-205; Mutation(s): Q72R Q84E A117W V85R DRD M54A L104V
Regarding B10, the figures for the EC90 in assay [1] (setting [2]) and in assay [1] (setting [3]) were 183 nM and 184 nM, respectively. In assay [1], the “FC (fold change)” value is given as 30.1.

B11: FKBP-287: FKBP13 DRD-AcGFP construct of Table 10 (protein)
chain: HCPIKSRKGDVLHMHYTGKLEDGTEFDSSLPRNWPFVFSLGTGERIKGWDQGLLGMCEGEKRKLVIPSELGYGERGWPPIIPGGATLVFFVELLKIER
modifications: Description of sequence: Construct Name: FKBP-287; Mutation(s): Q72R Q74W Q84E A117W V85R E130F K120I
In the assay on Jurkat cells (tacrolimus, FIG. 37), B11 gave an FC of 47.09 and a Peak of 1747. Also, the “Fold Change” value in the assay with Jurkat cells (tacrolimus) is reported as 47.09.

B12: FKBP-207 (protein)
chain: HCPIKSRKGDVLHAHYTGKLEDGTEFDSSLPRNQPFVFSLGTGERIKGWDQGLLGMCEGEKRKLVIPSELGYGERGWPPKIPGGATLVFEVELLKVER
modifications: Description of sequence: Construct Name: FKBP-207; Mutation(s): Q72R Q84E A117W V85R DRD M54A I136V
As for B12, the EC90 in assay [1] (setting [2]) amounted to 311 nM; in assay [1] (setting [3]), 302 nM. The “FC (fold change)” value in assay [1] worked out at 35.4.

B13: FKBP-290: FKBP13 DRD-AcGFP construct of Table 10 (protein)
chain: HCPIKSRKGDVLHMHYTGKLEDGTEFDSSLPRNQPFVFSLGTGERIKGWDQGLLGMCEGEKRKLVIPSELGYGERGWPPIIPGGATLVFFVELLKIER
modifications: Description of sequence: Construct Name: FKBP-290; Mutation(s): Q72R Q84E A117W V85R K120I E130F
With B13, in the assay on Jurkat cells (tacrolimus, FIG. 38), the FC is listed as 92.89 and the Peak is 3191. Besides, the “Fold Change” value with Jurkat cells (tacrolimus) came out at 92.89.

B14: FKBP-292: FKBP13 DRD-AcGFP construct of Table 10 (protein)
chain: HCPIKSRKGDVLHMHYTGKLEDGTEFDSSLPRNQPFVFSLGTGERIKGWDQGLLGMCEGEKRKLVIPSELGYGERGWPPKIPGGATLVFEVELLQIER
modifications: Description of sequence: Construct Name: FKBP-292; Mutation(s): Q72R Q84E A117W V85R K135Q
Take B14: in the assay on Jurkat cells (tacrolimus, FIG. 38), the FC is 50.68 and the Peak stood at 3797. Besides, the “Fold Change” value in the assay with Jurkat cells (tacrolimus) turned out to be 50.68.

B15: FKBP-162 (protein)
chain: HCPIKSRKGDVLHAHYTGKLEDGTEFDSSLPRNQPFVFSLGTGERIKGWDQGLLGMCEGEKRKLVIPSELGYGERGWPPKIPGGATLVFEVELLKIE
modifications: C-terminal R deleted; Description of sequence: Construct Name: FKBP-162; Mutation(s): Q72R Q84E A117W DRD M54A del c-term R V85R
Consider B15, for which the EC90 in assay [1] (setting [2]) came to 1800 nM; in assay [1] (setting [3]), 1870 nM. For the same molecule, the “FC (fold change)” value in assay [1] came out at 46.6.
